According to the supplement of paper PMC11811203:

B1: THAP1; numbered along this chain (parent)
chain: MVQSCSAYGCKNRYDKDKPVSFHKFPLTRPSLCKEWEAAVRRKNFKPTKYSSICSEHFTPDCFKRECNNKLLKENAVPTIFLCTEPHDKKEDLLEPQEQLPPPPLPPPVSQVDAAIGLLMPPLQTPVNLSVFCDHNYTVEDTMHQRKRIHQLEQQVEKLRKKLKTAQQRCRRQERQLEKLKEVVHFQKEKDDVSERGYVILPNDYFEIVEVPA

Variants of: B1
Assay: THAP1 transcriptional activity (GFP+/GFP- enrichment relative to wild-type constructs) (ratio to WT); higher = more THAP1 activity (PSMB5 reporter activation)
Settings: with PSMB5 promoter-GFP reporter
Summary of the method: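 A lentiviral site-saturation library covering residues 2–213 of human THAP1, with each position changed to all 20 amino acids, was transduced in duplicate at MOI ~0.3 into THAP1-knockout HEK-293T cells with mClover3 knocked in at endogenous PSMB5. Five days later, BFP+ cells were sorted into GFP-dim and GFP-bright bins and variants were counted by Illumina sequencing of genomic DNA amplicons. Activity is the bright/dim read fold change averaged over replicates and divided by the mean of wild-type synonymous constructs.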

Row | Variant | THAP1 transcriptional activity
1 | MVQSCSAYGCKNRYDKDKPVSFHKFPLTRPSLCKEWEAAVRRKNFKPTKYSSICSEHFTPDCFKRECNNKLLKENAVPTIFLCTEPHDKKEDLLEPQEQLPPPPLPPPVSQVDAAIGLLMPPLQTPVNLSVFCDHNYTVEDTMHQRKRIHQLEQQVEKLRKVLKTAQQRCRRQERQLEKLKEVVHFQKEKDDVSERGYVILPNDYFEIVEVPA [K162V] | 0.232
2 | MVQSCSAYGCKNRYDKDKPVSFHKFPLTRPSLCKEWEAAVRRKNFKPTKYSSICSEHFTPDCFKRECNNKLLKENAVPTIFLCTEPHDKKEDLLEPQEQLPPPPLPPPVSQVDAAIGLLMPPLQTPVNLSVFCDHNYTVEDTMHQRKRIHQLEQQVEKLRKKLKTAQQRCRRQERQLMKLKEVVHFQKEKDDVSERGYVILPNDYFEIVEVPA [E178M] | 0.795
3 | MVQSCSAYGCKNRYDKDKPVSFHKFPLTRPSLCKEWEAAVRRKNFKPTKYSSICSEHFTPDCFKREWNNKLLKENAVPTIFLCTEPHDKKEDLLEPQEQLPPPPLPPPVSQVDAAIGLLMPPLQTPVNLSVFCDHNYTVEDTMHQRKRIHQLEQQVEKLRKKLKTAQQRCRRQERQLEKLKEVVHFQKEKDDVSERGYVILPNDYFEIVEVPA [C67W] | 0.116
4 | MVQSCSAYGCKNRYDKDKPVSFHKFPLTRPSLCKEWEAAVRRKNFKPTKYSSICSEHFTPDCFKRECNNKLLKENAVPTIFLCTEPHDKKEDLLEPQEQLPPPPLPPPVSQVDAAIGLLMPPLQTPVNLSVFCDHNYTVEDTMHQRKRIHQLEQQVEKLRKKLKTAQQRCRRQERQLEKLYEVVHFQKEKDDVSERGYVILPNDYFEIVEVPA [K181Y] | 0.36
5 | MVQSCSAYGCKNRYDKDKPVSFHKFPLTRPSLCKEWEAAVRRKNFKPTKYSSICSEHFTPDCFKRECNNKLLKENAVPTIFLCTEPHDKKEDLLEPQEQLPPPPLPPPVSQVDAAIGLLMPPLQTPVNYSVFCDHNYTVEDTMHQRKRIHQLEQQVEKLRKKLKTAQQRCRRQERQLEKLKEVVHFQKEKDDVSERGYVILPNDYFEIVEVPA [L129Y] | 0.843
6 | MVQSCSAYGCKNRYDKDKPVSFHKFPLTRPSLCKEWEAAVRRKNFKPTKYSSICSEHFTPDCFKRECNNKLLKENAMPTIFLCTEPHDKKEDLLEPQEQLPPPPLPPPVSQVDAAIGLLMPPLQTPVNLSVFCDHNYTVEDTMHQRKRIHQLEQQVEKLRKKLKTAQQRCRRQERQLEKLKEVVHFQKEKDDVSERGYVILPNDYFEIVEVPA [V77M] | 0.439
7 | MVQSCSAYGCKNRYDKDKPVSFHKFPLTRPSLCKEWEAAVRRKNFKPTKYSSICSEHFTPDCFKRSCNNKLLKENAVPTIFLCTEPHDKKEDLLEPQEQLPPPPLPPPVSQVDAAIGLLMPPLQTPVNLSVFCDHNYTVEDTMHQRKRIHQLEQQVEKLRKKLKTAQQRCRRQERQLEKLKEVVHFQKEKDDVSERGYVILPNDYFEIVEVPA [E66S] | 1.14
8 | MVQSCSAYGCKNRYDKDKPVSFHKFPLTRPSLCKEWEAAVRRKNFKPTKYSSICSEHFTPDCFKRECNNKLLKENAVPTIFLCTEPHDKKEDLLEPQEQLPPPPLPPPVGQVDAAIGLLMPPLQTPVNLSVFCDHNYTVEDTMHQRKRIHQLEQQVEKLRKKLKTAQQRCRRQERQLEKLKEVVHFQKEKDDVSERGYVILPNDYFEIVEVPA [S110G] | 1.15
9 | MVQSCSAYGCKNRYDKDKPVSFHKFPLTRPSLCKEWEAAVRRANFKPTKYSSICSEHFTPDCFKRECNNKLLKENAVPTIFLCTEPHDKKEDLLEPQEQLPPPPLPPPVSQVDAAIGLLMPPLQTPVNLSVFCDHNYTVEDTMHQRKRIHQLEQQVEKLRKKLKTAQQRCRRQERQLEKLKEVVHFQKEKDDVSERGYVILPNDYFEIVEVPA [K43A] | 0.587
10 | MVQSCSAYGCKNRYDKDKPVSFHKFPLTRPSLCKEWEAAVRRKNFKPTKYSSICSEHFTPDCFKRECNNKLLKENAVPTIFLCTEPHDKKEDLLEPQEQLPPPPLPPPVSQVDANIGLLMPPLQTPVNLSVFCDHNYTVEDTMHQRKRIHQLEQQVEKLRKKLKTAQQRCRRQERQLEKLKEVVHFQKEKDDVSERGYVILPNDYFEIVEVPA [A115N] | 0.982
11 | MVQSCSAYGCKNRYDKDKPVSFHKFPLTRPSLCKEEEAAVRRKNFKPTKYSSICSEHFTPDCFKRECNNKLLKENAVPTIFLCTEPHDKKEDLLEPQEQLPPPPLPPPVSQVDAAIGLLMPPLQTPVNLSVFCDHNYTVEDTMHQRKRIHQLEQQVEKLRKKLKTAQQRCRRQERQLEKLKEVVHFQKEKDDVSERGYVILPNDYFEIVEVPA [W36E] | 0.13
12 | MVQSCSAYGCKNRYDKDKPVSFHKFPLTRPSLCKEWEAAVRRKNFKPTKYSSICSEHFTPDCFKRECNNKLLKENAVPTIFLCTEPHDKKEDLLEPQEQLPPPPLPPPSSQVDAAIGLLMPPLQTPVNLSVFCDHNYTVEDTMHQRKRIHQLEQQVEKLRKKLKTAQQRCRRQERQLEKLKEVVHFQKEKDDVSERGYVILPNDYFEIVEVPA [V109S] | 1.31
13 | MVQSCSAYGCKNRYDKDKPVSFHKFPLTRPSLCKEWEAAVRRKNFKPTKYSSICSEHFTPDCFKRECNNKLLKENAVPTIFLCTEPHDKKEDLLEPQEQLPPPPLPPPVSQVDAAIGLLMPPLLTPVNLSVFCDHNYTVEDTMHQRKRIHQLEQQVEKLRKKLKTAQQRCRRQERQLEKLKEVVHFQKEKDDVSERGYVILPNDYFEIVEVPA [Q124L] | 0.212
14 | MVQSCSAYGCKNRYDKDKPVSFHKFPLTRPSLCKEWEAASRRKNFKPTKYSSICSEHFTPDCFKRECNNKLLKENAVPTIFLCTEPHDKKEDLLEPQEQLPPPPLPPPVSQVDAAIGLLMPPLQTPVNLSVFCDHNYTVEDTMHQRKRIHQLEQQVEKLRKKLKTAQQRCRRQERQLEKLKEVVHFQKEKDDVSERGYVILPNDYFEIVEVPA [V40S] | 0.14
15 | MVQSCSAYGCKNRYDKDKPVSFHKFPLTRPSLCKEWEAAVRRKNFKPTKYSSICSEHFTPDCFKRECNNKLLKENAVPTIFLCTEPHDKKEDLREPQEQLPPPPLPPPVSQVDAAIGLLMPPLQTPVNLSVFCDHNYTVEDTMHQRKRIHQLEQQVEKLRKKLKTAQQRCRRQERQLEKLKEVVHFQKEKDDVSERGYVILPNDYFEIVEVPA [L94R] | 2.34
16 | MVQSCSAYGCKNRYDKDKPVSFHKFPLTRPSLCKEWEAAVRRKNFKPTKYSSICSEHFTPDCFKRECNNKLLKENAVPTIFLCTEPHDKKEDLLEPQEQLPPPPLPPPVSQVDAAIGLIMPPLQTPVNLSVFCDHNYTVEDTMHQRKRIHQLEQQVEKLRKKLKTAQQRCRRQERQLEKLKEVVHFQKEKDDVSERGYVILPNDYFEIVEVPA [L119I] | 1.11
17 | MVQSCSAYGCKNRYDKDKPVSFHKFPLTRPSLCKEWEAAVRRKNFKPTKYSSICSEHFTPDCFKRECNNKLLKENAVPTIFLCTEPHDKKEDLLEPQEQLPPPPLPPPVSQVDAAIGLLMPPLQTPVKLSVFCDHNYTVEDTMHQRKRIHQLEQQVEKLRKKLKTAQQRCRRQERQLEKLKEVVHFQKEKDDVSERGYVILPNDYFEIVEVPA [N128K] | 0.645
18 | MVQSCSAYGCKNRYDKDKPVSFHKFPLTRPSLCKEWEAAVRRKNFKPTKYSSICSEHFTPDCFKRECNNKLLKENAVPTIFLCTEPHDKKEDLLEPQEQLPPPPLPPPVSQVDAAIGLLMPPLQTPVCLSVFCDHNYTVEDTMHQRKRIHQLEQQVEKLRKKLKTAQQRCRRQERQLEKLKEVVHFQKEKDDVSERGYVILPNDYFEIVEVPA [N128C] | 0.306
19 | MVQSCSAYGCKNRYDKDKPVSFHKFPLTRPSLCKEWEAAVRRKNFKPTKYSSICSEHFTPDCFKRECNNKLLKENAVPTIFLCTEPHDKKEDLLEPQEQLPPPPLPPPVSQVDAAIGLLMPPLQTPVNLSVFCDHNYTVEDTMHQRKRIHQLEQQVEKLRKKLKTAQQRCRRQERQLEKLKEVVHFQKEKDDVSEMGYVILPNDYFEIVEVPA [R196M] | 0.811
20 | MVQSCSAYGCKNRYDKDKPVSFHKFPLTRPSLCKEWEAAVRRKNFKPTKYSSICSEHFTPDCFKRECNNKLLKENAVPTIFLCTEPHDKKEDLLEPQEQLPPPPLPPPVSQVDAAIGLLMPPLQQPVNLSVFCDHNYTVEDTMHQRKRIHQLEQQVEKLRKKLKTAQQRCRRQERQLEKLKEVVHFQKEKDDVSERGYVILPNDYFEIVEVPA [T125Q] | 0.85
21 | MVQSCSAYGCKNRYDKDKPVSFHKFPLTRPSLCKEWEAAVRRKNFKPTKYSSICSEHFTPDCFKRECNNKLLKENAVPTIFLQTEPHDKKEDLLEPQEQLPPPPLPPPVSQVDAAIGLLMPPLQTPVNLSVFCDHNYTVEDTMHQRKRIHQLEQQVEKLRKKLKTAQQRCRRQERQLEKLKEVVHFQKEKDDVSERGYVILPNDYFEIVEVPA [C83Q] | 3.29
22 | MVQSCSAYGCKNRYDKDKPVSFHKFPLARPSLCKEWEAAVRRKNFKPTKYSSICSEHFTPDCFKRECNNKLLKENAVPTIFLCTEPHDKKEDLLEPQEQLPPPPLPPPVSQVDAAIGLLMPPLQTPVNLSVFCDHNYTVEDTMHQRKRIHQLEQQVEKLRKKLKTAQQRCRRQERQLEKLKEVVHFQKEKDDVSERGYVILPNDYFEIVEVPA [T28A] | 0.664
23 | MVQSCSAYGCKNRYDKDKPVSFHKFPLTRPSLCKEWEAAVRRKNFKPTKYSSICSEHFTPDCFKRECNNKLLKENAVPTIDLCTEPHDKKEDLLEPQEQLPPPPLPPPVSQVDAAIGLLMPPLQTPVNLSVFCDHNYTVEDTMHQRKRIHQLEQQVEKLRKKLKTAQQRCRRQERQLEKLKEVVHFQKEKDDVSERGYVILPNDYFEIVEVPA [F81D] | 0.125
24 | MVQSCSAYGCKNRYDKDKPVSFHKFPLTRPSLCKEWEAAVRRKNFKPTKYSSICSEHFTPDCFKRECNNKLLKENAVPTIFLCTEPHDKKEDLLEPQEQLPPPPLPPPVSQVDAAIGLLMPPLQTPVNLSVFCDHNYTVEDTMHQRKRIHQLEQQVEKLRKKLKTAQQRCRRQERQLEKLKEVVHFQKECDDVSERGYVILPNDYFEIVEVPA [K190C] | 1.06
25 | MVQSCSAYGCKNRYDKDKPVSFHKFPLTRPSLCKEWEAAVRRKNFKPTKYSSICSEHFTPDCFKRECNNKLLKENAVPTIFLCTEPHDKKEDLLEPQEQLPPPPLPPPVSQVDAAIGLLMPPLQTPVNLSVFCDHNYTVEDTMPQRKRIHQLEQQVEKLRKKLKTAQQRCRRQERQLEKLKEVVHFQKEKDDVSERGYVILPNDYFEIVEVPA [H144P] | 0.334
26 | MGQSCSAYGCKNRYDKDKPVSFHKFPLTRPSLCKEWEAAVRRKNFKPTKYSSICSEHFTPDCFKRECNNKLLKENAVPTIFLCTEPHDKKEDLLEPQEQLPPPPLPPPVSQVDAAIGLLMPPLQTPVNLSVFCDHNYTVEDTMHQRKRIHQLEQQVEKLRKKLKTAQQRCRRQERQLEKLKEVVHFQKEKDDVSERGYVILPNDYFEIVEVPA [V2G] | 0.0831
27 | MVQSCSAYGCKNRYDKDKPVSFHKFPLTRPSLCKEWEAAVRRKNFKPTKYSSICSEHFTPDCFKRECNNKLLKENAVPTIFLCTEPHDKKEDLLEPQEQLPPPPLPPPVSQVDAAIGLLMPPLQTPVNLSVFCDHNYTVEDTMHQRKRIHQLEQQVEKFRKKLKTAQQRCRRQERQLEKLKEVVHFQKEKDDVSERGYVILPNDYFEIVEVPA [L159F] | 0.337
28 | MVQSCSAYGCKNRYDKDKPVSFHKFPLTRPSLCKEWEAAVRRKNFKPTKYSSICSEHFTPDCFKRECNNKLLKENAVPTIFLCTEPHDKKEDLLEPQEQLPPPPLPPDVSQVDAAIGLLMPPLQTPVNLSVFCDHNYTVEDTMHQRKRIHQLEQQVEKLRKKLKTAQQRCRRQERQLEKLKEVVHFQKEKDDVSERGYVILPNDYFEIVEVPA [P108D] | 1.66
